Data from US20210388087A1 (Chugai, published 2021).
Positions count from the first letter of the chain named. In names and notes the source's numbering stands. Values belong to the binder of their own block, whether it stands above or below them.

Target: T1, Human CD3eg linker (human)
T1 construct: single-chain construct; also called recombinant human CD3
T1 chain: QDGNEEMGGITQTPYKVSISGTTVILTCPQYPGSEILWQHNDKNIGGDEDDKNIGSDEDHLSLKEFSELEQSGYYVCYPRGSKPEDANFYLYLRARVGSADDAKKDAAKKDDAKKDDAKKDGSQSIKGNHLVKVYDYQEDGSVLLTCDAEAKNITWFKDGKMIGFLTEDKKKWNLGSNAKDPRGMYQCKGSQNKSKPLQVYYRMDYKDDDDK
Assay: SPR, vs unmutated H183/L072

- fold change of affinity: 0.7 fold
B2: dBBDu183H P100eD/dBBDu072L (antibody, name in Kabat numbering, V domains shown)
VH: QVQLVESGGGLVQPGRSLRLSCAASGFTFSNAWMHWVRQAPGKGLEWVAQIKDKGNAYAAYYAPSVKGRFTISRDDSKNSIYLQMNSLKTEDTAVYYCHYVHYASASTVLDAFGVDAWGQGTTVTVSS
VL: DIVMTQSPLSLPVTPGEPASISCQASQELVHMNRNTYLHWYQQKPGQAPRLLIYKVSNRFPGVPDRFSGSGSGTDFTLKISRVEAEDVGVYYCAQGTSVPFTFGQGTKLEIK

- fold change of affinity: 1.9 fold
B4: dBBDu183H P61Y/dBBDu072L (antibody, name in Kabat numbering, V domains shown)
VH: B2 VH with P64Y, D111P
VL: B2 VL

- fold change of affinity: 1.5 fold
B5: dBBDu183H P100eQ/dBBDu072L (antibody, name in Kabat numbering, V domains shown)
VH: B2 VH with D111Q
VL: B2 VL

- fold change of affinity: 1 fold
B6: dBBDu183H P61T/dBBDu072L (antibody, name in Kabat numbering, V domains shown)
VH: B2 VH with P64T, D111P
VL: B2 VL

- fold change of affinity: 2.1 fold
B7: dBBDu183H P100eK/dBBDu072L (antibody, name in Kabat numbering, V domains shown)
VH: B2 VH with D111K
VL: B2 VL

- fold change of affinity: 1.5 fold
B9: dBBDu183H P100eH/dBBDu072L (antibody, name in Kabat numbering, V domains shown)
VH: B2 VH with D111H
VL: B2 VL

- fold change of affinity: 1.6 fold
B13: dBBDu183H P100eG/dBBDu072L (antibody, name in Kabat numbering, V domains shown)
VH: B2 VH with D111G
VL: B2 VL

- fold change of affinity: 1.9 fold
B14: dBBDu183H P100eF/dBBDu072L (antibody, name in Kabat numbering, V domains shown)
VH: B2 VH with D111F
VL: B2 VL

- fold change of affinity: 1 fold
B19: dBBDu183H P100eE/dBBDu072L (antibody, name in Kabat numbering, V domains shown)
VH: B2 VH with D111E
VL: B2 VL

- fold change of affinity: 1.5 fold
B20: dBBDu183H P100eV/dBBDu072L (antibody, name in Kabat numbering, V domains shown)
VH: B2 VH with D111V
VL: B2 VL

- fold change of affinity: 1.3 fold
B21: dBBDu183H P100eN/dBBDu072L (antibody, name in Kabat numbering, V domains shown)
VH: B2 VH with D111N
VL: B2 VL

- fold change of affinity: 1.2 fold
B23: dBBDu183H P100eS/dBBDu072L (antibody, name in Kabat numbering, V domains shown)
VH: B2 VH with D111S
VL: B2 VL

- fold change of affinity: 1.3 fold
B24: dBBDu183H P61S/dBBDu072L (antibody, name in Kabat numbering, V domains shown)
VH: B2 VH with P64S, D111P
VL: B2 VL

- fold change of affinity: 1.7 fold
B27: dBBDu183H P100eW/dBBDu072L (antibody, name in Kabat numbering, V domains shown)
VH: B2 VH with D111W
VL: B2 VL

- fold change of affinity: 1.8 fold
B28: dBBDu183H P61W/dBBDu072L (antibody, name in Kabat numbering, V domains shown)
VH: B2 VH with P64W, D111P
VL: B2 VL

- fold change of affinity: 1.4 fold
B31: dBBDu183H P100eT/dBBDu072L (antibody, name in Kabat numbering, V domains shown)
VH: B2 VH with D111T
VL: B2 VL

- fold change of affinity: 2.2 fold
B32: dBBDu183H P100eR/dBBDu072L (antibody, name in Kabat numbering, V domains shown)
VH: B2 VH with D111R
VL: B2 VL

The next lines start with the binder.

B1: dBBDu183H L100dQ/dBBDu072L (antibody, name in Kabat numbering, V domains shown)
VH: B2 VH with L110Q, D111P
VL: B2 VL
- fold change of affinity: 1.1 fold

B3: dBBDu183H P61Q/dBBDu072L (antibody, name in Kabat numbering, V domains shown)
VH: B2 VH with P64Q, D111P
VL: B2 VL
- fold change of affinity: 1.8 fold

B8: dBBDu183H L100dR/dBBDu072L (antibody, name in Kabat numbering, V domains shown)
VH: B2 VH with L110R, D111P
VL: B2 VL
- fold change of affinity: 1.8 fold

B10: dBBDu183H P61G/dBBDu072L (antibody, name in Kabat numbering, V domains shown)
VH: B2 VH with P64G, D111P
VL: B2 VL
- fold change of affinity: 1.5 fold

B11: dBBDu183H L100dT/dBBDu072L (antibody, name in Kabat numbering, V domains shown)
VH: B2 VH with L110T, D111P
VL: B2 VL
- fold change of affinity: 1.3 fold

B12: dBBDu183H P61D/dBBDu072L (antibody, name in Kabat numbering, V domains shown)
VH: B2 VH with P64D, D111P
VL: B2 VL
- fold change of affinity: 1.9 fold

B15: dBBDu183H L100dS/dBBDu072L (antibody, name in Kabat numbering, V domains shown)
VH: B2 VH with L110S, D111P
VL: B2 VL
- fold change of affinity: 1.2 fold

B16: dBBDu183H P61F/dBBDu072L (antibody, name in Kabat numbering, V domains shown)
VH: B2 VH with P64F, D111P
VL: B2 VL
- fold change of affinity: 1.8 fold

B17: dBBDu183H P61N/dBBDu072L (antibody, name in Kabat numbering, V domains shown)
VH: B2 VH with P64N, D111P
VL: B2 VL
- fold change of affinity: 1.5 fold

B18: dBBDu183H P61K/dBBDu072L (antibody, name in Kabat numbering, V domains shown)
VH: B2 VH with P64K, D111P
VL: B2 VL
- fold change of affinity: 1.7 fold

B22: dBBDu183H L100dW/dBBDu072L (antibody, name in Kabat numbering, V domains shown)
VH: B2 VH with L110W, D111P
VL: B2 VL
- fold change of affinity: 1.7 fold

B25: dBBDu183H L100dY/dBBDu072L (antibody, name in Kabat numbering, V domains shown)
VH: B2 VH with L110Y, D111P
VL: B2 VL
- fold change of affinity: 1.4 fold

B26: dBBDu183H P61R/dBBDu072L (antibody, name in Kabat numbering, V domains shown)
VH: B2 VH with P64R, D111P
VL: B2 VL
- fold change of affinity: 1.6 fold

B29: dBBDu183H L100dV/dBBDu072L (antibody, name in Kabat numbering, V domains shown)
VH: B2 VH with L110V, D111P
VL: B2 VL
- fold change of affinity: 1 fold

B30: dBBDu183H P61H/dBBDu072L (antibody, name in Kabat numbering, V domains shown)
VH: B2 VH with P64H, D111P
VL: B2 VL
- fold change of affinity: 1.8 fold

B33: dBBDu183H P61E/dBBDu072L (antibody, name in Kabat numbering, V domains shown)
VH: B2 VH with P64E, D111P
VL: B2 VL
- fold change of affinity: 1.8 fold
